Experimental data taken from the RNAGym collection of RNA variant scans (doi:10.7554/elife.90254).

B1: LINE1-full (parent)
chain: UACGUAGGUGGUUUUCCCCUGAUAGUGCUAAGGGGGCCUGGAAGUUUGGACUGGGCAGAGCUCAACACAGCGUGGCAAAGUGGCUGUGGCUAGACUGCCUCUCUGGAUUCCUCGUCACUCAGCAGGGCAUCUCUGAGAGAAAUGCC

Variants of: B1
Experiment: self-cleavage, relative activity (ratio to wild type); higher = more cleavage; in vitro, sequencing; the parent is a self-cleaving ribozyme

| Variant | self-cleavage |
| --- | --- |
| A59C U87A | 0.04 |
| U9C U104A | 1.4 |
| U45C A64G | 0.22 |
| U85A C111A | 0.06 |
| G10C U96A | 0.22 |
| U47C G86U | 0.13 |
| U29C A50G | 0.82 |
| U1A U104C | 1.51 |
| U81C A121C | 1.37 |
| A57C U81C | 0.04 |
| U47G A59U | 1 |
| U52A G137A | 0.99 |
| U87C G122U | 0.3 |
| C120U G126A | 2.01 |
| U46A U85C | 0.08 |
| U26G U62C | 0.19 |
| A69G G144A | 1.02 |
| C17U A50G | 0.59 |
| A78G G126C | 1.99 |
| C3A | 0.69 |
| C76U U112A | 2.4 |
| A22G C116U | 0.24 |
| U81A U130A | 1.3 |
| A129C U134A | 1.59 |

| Variant | self-cleavage |
| --- | --- |
| U47C A129U | 1.74 |
| G72A U134A | 1.15 |
| U39C A50G | 0.77 |
| A22U U102A | 1.41 |
| A43U G82A | 1.4 |
| U1A U108C | 0.77 |
| U91C U100C | 0.48 |
| U20A A136U | 1.38 |
| A31U U39A | 1.05 |
| C101U U108C | 1.37 |
| G49C | 1.15 |
| G34C A136G | 1.79 |
| U12C G82C | 2.15 |
| A67C A124G | 0.06 |
| A64G A79G | 0.24 |
| G86A A138G | 0.13 |
| U5G | 0.76 |
| A107G A117U | 1.85 |
| U26C A136G | 1.42 |
| U9C U91C | 1.75 |
| U12A C66U | 0.06 |
| A69U A124U | 0.09 |
| G70U G97A | 0.01 |
| C76A A136G | 1.79 |

| Variant | self-cleavage |
| --- | --- |
| U85A | 0.09 |
| U47C G97A | 0.59 |
| G75A U134A | 1 |
| A30U A94C | 0 |
| U13C C99G | 0.39 |
| G72A U115C | 0.9 |
| G32U U39A | 1.06 |
| U102C C116U | 1.72 |
| U26C G88A | 0.05 |
| C3A A140U | 0.9 |
| A64G A124G | 0.28 |
| C16A A121G | 0.53 |
| G74A U104C | 1.34 |
| G105A A141G | 0.87 |
| A92G U104A | 0.06 |
| U20G A79G | 1.17 |
| U20C U52A | 0.69 |
| G80U U134A | 1.45 |
| G8A G135A | 1.23 |
| A78G U96A | 0.06 |
| G114A A121U | 1.37 |
| U5C G114A | 0.96 |
| U5A U12G | 0.6 |
| U134C A140U | 1.02 |

| Variant | self-cleavage |
| --- | --- |
| A77U A92U | 0.63 |
| A50G A117G | 1.97 |
| C90U A107G | 0.03 |
| A31U A141G | 1.01 |
| A65G A136G | 0.07 |
| U73A G125A | 1.92 |
| U39A G74A | 0.88 |
| C131U A138G | 1.36 |
| U39C A77U | 0.96 |
| A79G U112A | 1.54 |
| U62A U81A | 0.05 |
| U15C G106C | 1.03 |
| C133U A138C | 1.74 |
| U15A G35C | 1.26 |
| G80A A141G | 1.89 |
| G72U U134C | 1.24 |
| G75U A142U | 0.84 |
| U52C A141G | 1.25 |
| G135A A140G | 1.18 |
| C110U A142G | 2.11 |
| G55C G72A | 0.08 |
| U39C C113U | 1.26 |
| A43U G53C | 1.03 |
| U109A U134C | 1.67 |

| Variant | self-cleavage |
| --- | --- |
| G53A U73G | 1.05 |
| C16U U100A | 0.32 |
| A78G C116U | 1.29 |
| G86A U109G | 0.07 |
| U96C G114A | 0.11 |
| U13C G125U | 1.4 |
| A77C A124G | 0.32 |
| C19U U91C | 0.62 |
| U20C G40C | 2.31 |
| U112C U119C | 1.6 |
| G8U U109C | 0.67 |
| G75U G139A | 0.89 |
| G33C A129U | 1.69 |
| U109C | 1.2 |
| U26C U45A | 0.99 |
| U46C G106U | 0.84 |
| G25A G54C | 1.02 |
| U13C A24G | 1.16 |
| U62A U85A | 0.02 |
| U115C U130A | 1.78 |
| U112A U115A | 1.4 |
| U104G C123U | 1.25 |
| U23C C111U | 1.34 |
| U26C U46A | 0 |

| Variant | self-cleavage |
| --- | --- |
| G93A G122C | 0.01 |
| U45C U115G | 2.1 |
| U29C G105A | 1.13 |
| C28G C128U | 1.8 |
| G74C A140G | 1.53 |
| G88A U134A | 0.06 |
| A42U A138U | 1.34 |
| A59U A65G | 0.03 |
| A42U A59G | 0.12 |
| G70A U100A | 0.05 |
| U47G A69G | 0.67 |
| A31U U85C | 0.28 |
| C19A A77G | 2.71 |
| U1C U14A | 0.81 |
| A129U U134A | 1.37 |
| G34A U45C | 0.87 |
| U26C A31U | 1.05 |
| U12A A138U | 1.02 |
| U81A A107G | 1.84 |
| C68U U96C | 0.04 |
| C63U U91G | 0.04 |
| U20A C37G | 2.63 |
| G11C U109C | 2.63 |
| A65G A129G | 0.03 |

| Variant | self-cleavage |
| --- | --- |
| U73C G139U | 2.83 |
| A50G G53A | 1.09 |
| U14C A79G | 0.84 |
| A22G A92C | 0.12 |
| U39C C90G | 0.03 |
| U1A | 1.17 |
| U39A A117G | 1.39 |
| U45A U108C | 1.48 |
| A57U U112C | 0.01 |
| U81A A94U | 0.6 |
| G80A C128U | 1.9 |
| G11C | 1.42 |
| C17U U87A | 0.11 |
| U109A G139A | 1.49 |
| A2G A124G | 0.74 |
| U1C G35A | 0.67 |
| U52A A79G | 1.09 |
| U26C G74A | 1.17 |
| U47A U102C | 1.19 |
| U130C A142G | 1.37 |
| A77C U143C | 1.12 |
| C68A G88A | 0.01 |
| A78U U115C | 1.72 |
